Measured values taken from the DeepSol protein solubility set.

experiment: soluble on expression in E. coli; label from the status in PepcDB or PDB records

| Sequence | soluble on expression in E. coli |
| --- | --- |
| SLFLLDPFSGISGDMFLSAMIDFVDKEDFINTIKKVIDVEIEIKKVKKCHILANKVNIIPKCINCNANTYKDIKNVIKSSDIQEDIKITALEILKILAEAESKVHNVDVENVHFHEVGNYDTIADIVGAAYIINKLNLKNNCLYKPINVGNGFVRTEHGLLPVPAPATAEILKGLKIFFSDINEELTTPTGSAIIKYINPKLAKGAFIIKEVSYGAGDKDLNLLNALRVFRVEDIKREDIVLLETNVDDISAEILGYLYEVLDGKVRDLHFIPTYMKKNRPAYTIRAIVDRDIAEEVAKIIMRETGSLGVRIFDIERITADREFKTIKLFDESVRLKVGRVNDEIISQKPEFEDLKNIAKKYGIPLKDLYKLINISQIKN | soluble |
| MAVSNIWQSYSSSNLHWIYPLYTNNCSQNVKSSFTAEILLKRRCNDIQDILNDRMIELLLQGACDPNKQQNYLQGMSPSRKKKTHVKKFLKKQKKSRKPITLEHGCLSGPVTLRFGNFAGIRDLRGTRCPLHGIKHGVHPKPGERCACQQATLFPSPLARFSCDQSAVLGCAASSTRVYDSIADEFSSLYF | not soluble |
| MGSDKIHHHHHHMSHTEVKLKIPFGNKLLDAVCLVPNKSLTYGIILTHGASGDMNLPHLMSLASHLASHGFFCLRFTCKGLNIVHRIKAYKSVLNYLKTSGEYKLAGVFLGGRSMGSRAAASVMCHIEPDDGDDFVRGLICISYPLHHPKQQHKLRDEDLFRLKEPVLFVSGSADEMCEKNLLEKVAQKMQAPHKIHWIEKANHSMAVKGRSTNDVFKEINTQILFWIQEITEMDKKCH | not soluble |
| MQIDFNSDMGESFGAWTIGDGVDTELMAFISSANIATGFHAGDPSTMRRTIEQAKRLGVAIGAHPGFRDLVGFGRRHINAPAQELVDDMLYQLGALRELARVQGVPLQHFKPHGALYMHLARDEEAARLLVENLQRLEPDLLLYCMPGSVICNVAQELGQPVVREFYADRAYDLSGSIVFTRNVRAHDPAEVAARVIRACQQGLVRTVEGDDLAIQFDSICLHSDTPGALALAQATRQALDGAGIEVRTPRLEHHHHHH | not soluble |
| MGSDKIHHHHHHMIKGIGTNVDTRRVNGSIKRLVSELEFFKSIGFDYVEIPAAGLDVIARGRIIRKRLERVKELLSNYNFRYTVHAPDVINLKIKTNPWHYRVMEATIEFAGEINAEVVVYHYGEVDHSIDVPERVQRKAEIVALRELADLAKEKGVVIGVENVGHPVSEVLKLVRAVNHPNVKLVIDVGHLFIVSNYTGIDFYDELKKGLPYAVELHLSDNFGESPQTYQKIPDVEAFRFVYGIGDLHLPIGEGDIPYNKVFRIIRESGFDGIVILEINSMDRFADEYADSLNLLRKRLILAADNNKTKKRRKVK | not soluble |
| MSIRLAQVTDIPVLKELLNQIFQVHQTVRPDLFKNTDKGSKYSETELKELLQDESKPIFVYTDGKNRVLGHLFLVIKETKGSSVSKPLKTLFIDDLCVSKEARGQKIGQELFEFALKYAKKLGCYDLTLNVWNDNKGALAFYERQGLKARETKMEKILLEHHHHHH | soluble |
| GPGSEHLTTVAAPFTCPIRRTVFAEGRRTIIFFRNIDATTAVFHQLRSAGFAVSLLHASLPYKVRKEMYADFASGRTNILCATDVAARGLDLHVDMVINFDVPTNALAYLSRSGRTARMGREGQVLNLYNKHQGVIVSAIKAFLKDNLPMEGLTNRKADMMQPRYAEWRTHKINALARSYVSLITR | not soluble |
| GPGSMRYRLRLDAFAPAGSLPCCRILTQVRNLNMNRSVQTRWESDNQVASQKRTDYDFDKEQWSKQMRFASMDCVMDPDITPIKYTSVTGLKKVLRRFMTMRKLIDRRPDFKTDDLKKLFIQLKTISHSRSLEDLKVLQRLTTHGEASRISKEIKTRMNDEFAKKSWKSLKMQEVSNTYQIELDSFQLVNCYMGQMSKEDWLQITYKCEFRERKGDNEEWQSVCEYPVFEVRLGDGVQSPNTHHFIIVGIMRKDGTRYGKDAQDAASLRKQFDRSRKWF | not soluble |
| MSLKTTTSSTPSDRITWVRISSCYLPLATPISDAKVLTGRQKPMTEIAILFAEIETAGGHQGLGFSYSKRAGGPGQFAHAREIAPALIGEDPSDIAKLWDKLCWAGASAGRSGLSTQAIGAFDVALWDLKAKRAGLSLAKLLGSYRDSVRCYNTSGGFLHTPIDQLMVNASASIERGIGGIKLKVGQPDGALDIARVTAVRKHLGDAVPLMVDANQQWDRPTAQRMCRIFEPFNLVWIEEPLDAYDHEGHAALALQFDTPIATGEMLTSAAEHGDLIRHRAADYLMPDAPRVGGITPFLKIASLAEHAGLMLAPHFAMELHVHLAAAYPREPWVEHFEWLEPLFNERIEIRDGRMLVPTRPGLGLTLSGQVKAWTREEAQVGTRPEGHHHHHH | soluble |
| SNAMTKKKVYIVSHSHWDREWYLPYEEHHMRLIELVDNVLDLIENDPEFNSFHLDGQTIILDDYLQVRPEKKEAVKKAVQAGKLKIGPFYILQDDFLISSESNVRNMLIGHLESQKWGAPVQLGYFPDTFGNMGQTPQMMQLANLPAAAFGRGVKPIGFDNQVLESDYSSQYSEMWWEGPDQTKIFGLLFANWYSNGNEIPSEKEAAIAFWKQKLADVERYASTNHLLMMNGVDHQPVQRDITKAIALANELFPEYEFIHSNFDDYLKAVQEELPEDLGTVTGELTSQETDGWYTLANTSSARVYLKQWNTKVQRQLENIAEPLAAMAYEVTGDYPHDQFDYAWKTLLQNHPHDSICGCSVDEVHRGMMTRFENANDVGHFLADEATRQLTEAIDTSVFPEKAHPFVLFNTSGYQKTEVVTVEVEIERLPFYTGKPEDLYHELKQKATPDYQVIDPTGKAVASRIVKEDVRFGYDLPKDAFRQPYMAKYLTVELSVKEMAPFSWDSFALIQGETKAFEGSLLAQPATNEMENEFIQVKIENNGSLTIADKKTGETFSKLLTFEDTGDIGNEYIFFKPTEDQGITTENVTAEITNKENSPVKASYQIKQTVMLPVAADERLEEEQKAVREFRERLAQRSTTLRPFEITTMVTMIKESNQLFFETTINNQIKDHRLRVLFPTGMVTETHEADSIYEVVTRPNQVSDTWENPTNPQHQQAFVNVHDQNKGVTIFNEGLNEYEVLADGTIAVTLIRCVGELGDWGYFATPEAQCQGEYTFKYGLSLHGKPEERFATYQQAYSAQIPFTAATTARHEGKLAPNHVYLTTAEGPIGWTAVKRQEQTNHLVVRGFNLTAQNIPCELHKETQPATCLTNVLEEPLTPAIEVDAPLRPFEIRTWRFEK | soluble |
| MGGRSRWEIAQESTLALARKCEQFDPDGITVYLFSGKFKRYDDVTSAKVAQIFLENDPAGTTNLAGVLQDALNNYFQRKAAGKTKPNGETILVITDGEPDDRKAVFETIIHATRQMERDEELGISMIQVGSDAQATKFLKALDDQLQSVGAKFDICDTITLEDLEDMSLADVLMNAITDLEHHHHHH | not soluble |
| MTTILTYPFKNLPTASKWALRFSIRPLSCSSQLRAAPAVQTKTKKTLAKPNIRNVVVVDGVRTPFLLSGTSYKDLMPHDLARAALTGLLHRTSVPKEVVDYIIFGTVIQEVKTSNVAREAALGAGFSDKTPAHTVTMACISANQAMTTGVGLIASGQCDVIVAGGVELMSDVPIRHSRKMRKLMLDLNKAKSMGQRLSLISKFRFNFLAPELPAVSEFSTSETMGHSADRLAAAFAVSRLEQDEYALRSHSLAKKAQDEGLLSDVVPFKVPGKDTVTKDNGIRPSSLEQMAKLKPAFIKPYGTVTAANSSFLTDGASAMLIMAEEKALAMGYKPKAYLRDFMYVSQDPKDQLLLGPTYATPKVLEKAGLTMNDIDAFEFHEAFSGQILANFKAMDSDWFAENYMGRKTKVGLPPLEKFNNWGGSLSLGHPFGATGCRLVMAAANRLRKEGGQYGLVAACAAGGQGHAMIVEAYPK | not soluble |
| MGSDKIHHHHHHVPLNSPLQLSLPVHLPDDETFNSYYPAAGNDELIQKLRANAEGQGEAAIYLWGPVKSGRTHLMHAACAHANEVERRSFYIPLGIHASISTALLEGLEQLDLVCIDDVDAIAGHPVWEEAIFDLYNRVAEHKNCALVVSGSSSPADAGFLLPDLVSRMQWGLNYQLQPMADDEKLAALQRRAAMRGLQLPEDVGRFLLNRMARDLRTLFDVLDKLDKASLVHQRKLTIPFAKEMLHL | not soluble |
| MAHHHHHHMYKYEKLYFFMCWKKCRFNNLTKVFLHSSNDYYNNLNVIKKEKGIFEKLLCIGNYNVDNFCFDKELYEKYRECIKNDYEKIRIKLKERKQNEYNNIHSKNLEHNESNICNNNNNNNINVYESYLYNIIQNNDYKDILISDVIYENGKNILCIGEANLSFSLLLQKNLNLCKVVSTSREDESVLIKKFGKKYFSKNLKLLESSGGIYIPNMNVENLSNQFLKNTFDIIIFNFPFVLPTKECIEKKWNIKLEREEIYSDNLKNETNSNNNSNSNNNNKSNNNNGNNNSSNNVYIKYYKKTEYFLLNKLIYHLFKCASHLLKNEGFLHIRLNDKYLTCSFPKNMSLSFLQKIDFSNSYIIYKSLKYVPSLFDCTFLNYEDKKKEKTKNNVIFTSSGKKIFKSFKMKHTSTLIFQKI | not soluble |
| MGSDKIHHHHHHMEDILKYLQVHVPFRMLEGGFLDTVIAKGISPEIGFDCAILDATGKDRFREVADRFSDAGLRVTFHAPFMDLRPGAIDPRIREVSRERIQQVFDLVPLFRPRTIVCHPSFDSRYYVSSERKWLENSTLTWSTFVEQAAEFDTLLLLENVYEKEPRQFVHLLTALDSLRVRFCLDTGHCNAFSDAPLSSWLEELGTFLGEVHLHDNDGSRDAHLPIGEGNFPFMELFGFLKTKVNRPILTLEAHSADHLSRTLETLRKNRLFGLI | not soluble |
| MMPNEKITLKQLIDHCFDTTKTTIKQQIVFGAGKIENKNFNIVGTVEDTSFGVDESIEMARCILDIIKNNNTDPIVLLTDVAGQKLAVRDEWLGMYAYFAHLLKCLHLARQNGNKIITLIYNQAIGGSFIAFGMMADRIYALKNAKLAVMWLEGMSKVTKIDIDVLRKISETSPVFAPGVENFKKLGGLHQVLDLDEVSQQLLLTLQEPNISHDNRAELGKQYGGRKEAYDIIKAIENL | not soluble |
| MLDPARSYDLIGDVHGCALTLEHLLDRLGYHKQAGVWRHPSRMAVFLGDIIDRGPRIRESLHIVHDMVEAGQALCIMGNHEFNALGWSTPAAEGSGKQFVREHTPRHARLIHETLTQFEQHPGDWHDFLQWFYELPLFVDAGRFRVVHACWDAGLIAPLRQQYPNGCIDREFLQSAAVPDSFACTAFDRLLRGTDMRLPHGLTMTSGDGLTRAFFRTKFWEDDPQTYGDIVFQPDALPEPVARTPLSPAEKNSLLRYGAEEPMLFVGHYWRSGKPAPIRPNLACLDYSAVLYGKLAAYRLDQETRLDPNKFVWVDVERPEVVRLEHHHHHH | not soluble |
| MGSDKIHHHHHHMMATSAVEKIDYWQASILKEMELSRAQFTHFAFEKHVHLDYHIGVVCHGGQRYHHRGSEYRLTPGNISTLNPDESHNGQSIADGGYEALVMSLPTSYVQQVGGALNQGELYFSTPILDDPKLRAYFIRLHRQLTLHQANITPLEAETLLLGFISELFYRHGKLRNLPSCQARLSGAQLDNIKQQFHQGLDQEFELEQLALSVDLSKFQFLRQFKAATGMTPHAYLKRLRLEYAKKALMRGDSAISTAYDLGFFDQSHFNKAFKRAFLITPAHFQKRVTP | not soluble |
| MSGFSTEERAAPFSLEYRVFLKNEKGQYISPFHDIPIYADKDVFHMVVEVPRWSNAKMEIATKDPLNPIKQDVKKGKLRYVANLFPYKGYIWNYGAIPQTWEDPGHNDKHTGCCGDNDPIDVCEIGSKVCARGEIIGVKVLGILAMIDEGETDWKVIAINVDDPDAANYNDINDVKRLKPGYLEATVDWFRRYKVPDGKPENEFAFNAEFKDKDFAIDIIKSTHDHWKALVTKKTNGKGISCMNTTLSESPFKCDPDAARAIVDALPPPCESACTVPTDVDKWFHHQKN | soluble |
| MSLTRKKEDPGHSGRADRAARLSKASTHHAQHRQQPQRTRHERPRHAGHVAGKLYQLEVSEALISSVTDAVLDNVHAWQSRPLAAQRAENQRLIPD | soluble |
